The source of these data is paper PMC3950679.

In one series the target is T1, Cid1 D160A (Schizosaccharomyces pombe, UniProt O13833 40-377, D160A).
T1 sequence: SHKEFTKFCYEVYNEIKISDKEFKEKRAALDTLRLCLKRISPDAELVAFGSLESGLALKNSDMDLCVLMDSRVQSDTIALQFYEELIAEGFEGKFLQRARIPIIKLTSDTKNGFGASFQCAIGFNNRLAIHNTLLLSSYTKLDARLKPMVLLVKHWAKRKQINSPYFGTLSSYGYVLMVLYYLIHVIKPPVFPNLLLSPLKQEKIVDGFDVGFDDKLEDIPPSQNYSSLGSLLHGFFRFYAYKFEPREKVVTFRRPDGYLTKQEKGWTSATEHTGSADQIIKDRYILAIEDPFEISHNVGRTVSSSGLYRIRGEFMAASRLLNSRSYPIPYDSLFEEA
As to the kind of experiment: EMSA.

Another series addresses T2, Cid1 WT (Schizosaccharomyces pombe, UniProt O13833 40-377).
T2 sequence: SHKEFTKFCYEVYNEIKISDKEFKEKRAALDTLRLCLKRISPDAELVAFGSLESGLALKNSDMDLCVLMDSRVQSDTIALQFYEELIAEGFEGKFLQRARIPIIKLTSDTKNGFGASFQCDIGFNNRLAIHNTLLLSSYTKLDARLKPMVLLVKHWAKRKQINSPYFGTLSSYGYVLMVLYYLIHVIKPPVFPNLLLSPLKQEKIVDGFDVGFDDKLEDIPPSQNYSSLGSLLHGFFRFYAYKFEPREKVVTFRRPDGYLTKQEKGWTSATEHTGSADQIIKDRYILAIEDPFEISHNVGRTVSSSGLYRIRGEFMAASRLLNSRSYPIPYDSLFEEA
As to the kind of experiment: EMSA. For orientation: A gel shift assay detects complexes by their altered migration in electrophoresis.

As to UUUUUUUUUUUUUUU (ssRNA) [U15], the dissociation constant Kd in the series with Cid1 D160A and with Cid1 WT was ~1000 nM throughout.

In general, Kd refers to the constant that tells how readily two partners part at equilibrium.
